Assay results as given in article PMC8146696, “Live-Cell Analysis of Human Cytomegalovirus DNA Polymerase Holoenzyme Assembly by Resonance Energy Transfer Methods” (Microorganisms, 2021).

B1: HCMV DNA polymerase processivity factor ppUL44, UL44(2–433), wild type (natural protein)
chain: DRKTRLSEPPTLALRLKPYKTAIQQLRSVIRALKENTTVTFLPTPSLILQTVRSHCVSKITFNSSCLYITDKSFQPKTINNSTPLLGNFMYLTSSKDLTKFYVQDISDLSAKISMCAPDFNMEFSSACVHGQDIVRESENSAVHVDLDFGVVADLLKWIGPHTRVKRNVKKAPCPTGTVQILVHAGPPAIKFILTNGSELEFTANNRVSFHGVKNMRINVQLKNFYQTLLNCAVTKLPCTLRIVTEHDTLLYVASRNGLFAVENFLTEEPFQRGDPFDKNYVGNSGKSRGGGGGGGSLSSLANAGGLHDDGPGLDNDLMNEPMGLGGLGGGGGGGGKKHDRGGGGGSGTRKMSSGGGGGDHDHGLSSKEKYEQHKITSYLTSKGGSGGGGGGGGGGLDRNSGNYFNDAKEESDSEDSVTFEFVPNTKKQKCG
notes: also called YFP-UL44; CFP-UL44; source: HEK293T, transiently transfected, in cells; YFP-UL44 also stably expressed in HEK293A (lentiviral transduction, puromycin); RLuc-UL44 also stably expressed in HEK293A clone 1B2 (G418); not shown: YFP (acceptor copy) or CFP (FRET donor copy) or RLuc (BRET donor copy), N-terminal, kept
B2: ppUL44 UL44(2–433) I135A (natural protein)
chain: DRKTRLSEPPTLALRLKPYKTAIQQLRSVIRALKENTTVTFLPTPSLILQTVRSHCVSKITFNSSCLYITDKSFQPKTINNSTPLLGNFMYLTSSKDLTKFYVQDISDLSAKISMCAPDFNMEFSSACVHGQDAVRESENSAVHVDLDFGVVADLLKWIGPHTRVKRNVKKAPCPTGTVQILVHAGPPAIKFILTNGSELEFTANNRVSFHGVKNMRINVQLKNFYQTLLNCAVTKLPCTLRIVTEHDTLLYVASRNGLFAVENFLTEEPFQRGDPFDKNYVGNSGKSRGGGGGGGSLSSLANAGGLHDDGPGLDNDLMNEPMGLGGLGGGGGGGGKKHDRGGGGGSGTRKMSSGGGGGDHDHGLSSKEKYEQHKITSYLTSKGGSGGGGGGGGGGLDRNSGNYFNDAKEESDSEDSVTFEFVPNTKKQKCG
notes: source: HEK293T, transiently transfected, in cells; not shown: YFP (acceptor copy) or RLuc (BRET donor copy), N-terminal, kept
B3: ppUL44 UL44(2–433) L86A/L87A (natural protein)
chain: DRKTRLSEPPTLALRLKPYKTAIQQLRSVIRALKENTTVTFLPTPSLILQTVRSHCVSKITFNSSCLYITDKSFQPKTINNSTPAAGNFMYLTSSKDLTKFYVQDISDLSAKISMCAPDFNMEFSSACVHGQDIVRESENSAVHVDLDFGVVADLLKWIGPHTRVKRNVKKAPCPTGTVQILVHAGPPAIKFILTNGSELEFTANNRVSFHGVKNMRINVQLKNFYQTLLNCAVTKLPCTLRIVTEHDTLLYVASRNGLFAVENFLTEEPFQRGDPFDKNYVGNSGKSRGGGGGGGSLSSLANAGGLHDDGPGLDNDLMNEPMGLGGLGGGGGGGGKKHDRGGGGGSGTRKMSSGGGGGDHDHGLSSKEKYEQHKITSYLTSKGGSGGGGGGGGGGLDRNSGNYFNDAKEESDSEDSVTFEFVPNTKKQKCG
notes: source: HEK293T, transiently transfected, in cells; not shown: YFP (acceptor copy) or CFP (FRET donor copy) or RLuc (BRET donor copy), N-terminal, kept
B5: HCMV DNA polymerase catalytic subunit pUL54, C-terminal domain UL54(1125–1242) (domain or fragment)
chain: VSRSDAIDGTDDDADGGGVEESNRRGGEPAKKRARKPPSAVCNYEVAEDPSYVREHGVPIHADKYFEQVLKAVTNVLSPVFPGGETARKDKFLHMVLPRRLHLEPAFLPYSVKAHECC
notes: also called CFP-UL54(1125–1242); RLuc-UL54; source: HEK293T, transiently transfected, in cells; not shown: CFP (FRET) or RLuc (BRET), N-terminal, kept

Assays:
[1] = biological target: ppUL44 UL44(2–433) ΔNLS (K428V/K429A/K431) (human cytomegalovirus (HCMV)) (UniProt P16790); experiment: FRET or BRET; BRET saturation in living HEK293T cells; fixed RLuc donor plasmid, increasing YFP acceptor plasmid (0-500 ng); one-site hyperbola of BRET ratio against YFPnet/RLuc gives B50 (relative affinity)
[2] = biological target: ppUL44 UL44(2–433) Δloop (R165G/K167N/K168G) (human cytomegalovirus (HCMV)) (UniProt P16790); experiment: as above
[3] = biological target: pUL54 C-terminal 20 aa C-terminal 20 aa (Human cytomegalovirus) (UniProt P08546); settings: cited from earlier work
[4] = biological target: UL44Δ290 1-290 (Human cytomegalovirus) (UniProt P16790); experiment: gel filtration; settings: cited from earlier work
[5] = biological target: the molecule itself; experiment: FRET or BRET; BRET in monoclonal HEK293A lines (from clone 1B2) stably expressing both YFP-UL44 and RLuc-UL44
[6] = biological target: the molecule itself; experiment: FRET or BRET; BRET at one donor/acceptor ratio in living HEK293T cells; RLuc fusion donor with or without YFP-UL44 acceptor, both transient; 48 h post transfection, cells in PBS, coelenterazine 5 uM
[7] = biological target: the molecule itself; experiment: FRET or BRET; BRET saturation in living HEK293T cells; fixed RLuc donor plasmid, increasing YFP acceptor plasmid (0-500 ng); one-site hyperbola of BRET ratio against YFPnet/RLuc gives B50 (relative affinity)
[8] = biological target: B5; experiment: FRET or BRET; BRET inhibition, system 1: HEK293T transiently expressing RLuc donor and YFP-UL44 acceptor at about 50% of BRETmax, with increasing amounts of pDESTnFLAG-UL44 or pDESTnFLAG-UL42; settings: partners not purified
[9] = biological target: B1; experiment: FRET or BRET; BRET saturation in living HEK293T cells; fixed RLuc donor plasmid, increasing YFP acceptor plasmid (0-500 ng); one-site hyperbola of BRET ratio against YFPnet/RLuc gives B50 (relative affinity); settings: partners not purified
[10] = biological target: B3; experiment: as above; settings: partners not purified
ppUL44 UL44(2–433) I135A = biological target: B2; experiment: as above; settings: partners not purified

HCMV DNA polymerase catalytic subunit pUL54, C-terminal domain UL54(1125–1242) (from UniProt P08546 1125-1242) (domain or fragment)
B50 [1]: 15.1
B50 [2]: 34.4

ppUL44 UL44(2–433) ΔNLS (K428V/K429A/K431) (from UniProt P16790 2-433) (natural protein)
B50 [1]: 11.2

ppUL44 UL44(2–433) Δloop (R165G/K167N/K168G) (from UniProt P16790 2-433) (natural protein)
B50 [2]: 12.6

UL44Δ290 1-290 (from UniProt P16790)
Kd [3]: 700 nM
Kd [4]: 250 nM

B1
BRET ratio [5]: 0.17
BRET ratio [6]: 0.36 ± 0.1
B50 [7]: 19

B2
B50 [7]: 25.5

B3
B50 [7]: 73.7

B4: FLAG-tagged ppUL44 (natural protein)
chain: MDRKTRLSEPPTLALRLKPYKTAIQQLRSVIRALKENTTVTFLPTPSLILQTVRSHCVSKITFNSSCLYITDKSFQPKTINNSTPLLGNFMYLTSSKDLTKFYVQDISDLSAKISMCAPDFNMEFSSACVHGQDIVRESENSAVHVDLDFGVVADLLKWIGPHTRVKRNVKKAPCPTGTVQILVHAGPPAIKFILTNGSELEFTANNRVSFHGVKNMRINVQLKNFYQTLLNCAVTKLPCTLRIVTEHDTLLYVASRNGLFAVENFLTEEPFQRGDPFDKNYVGNSGKSRGGGGGGGSLSSLANAGGLHDDGPGLDNDLMNEPMGLGGLGGGGGGGGKKHDRGGGGGSGTRKMSSGGGGGDHDHGLSSKEKYEQHKITSYLTSKGGSGGGGGGGGGGLDRNSGNYFNDAKEESDSEDSVTFEFVPNTKKQKCG
notes: also called FLAG-UL44; pDESTnFLAG-UL44; source: HEK293T or HEK293A-derived cell lines, transiently transfected, in cells
percent inhibition of the RLuc-UL54/YFP-UL44 BRET ratio [8]: ~40%

B5
B50 [9]: 20
B50 [10]: 11.5
B50 (ppUL44 UL44(2–433) I135A): 81.2
